Experimental findings from patent US20120065146A1 are described below.

For assay [1], the target named is Plk1 PBD (residues 326-603), purified recombinant (UniProt P53350). Kind of assay: ITC (Table 1, not given).
The target of assay [2] is Plk1 (endogenous, in mitotic HeLa cell lysates) (UniProt P53350). Kind of assay: pull-down from mitotic HeLa lysate with bead-immobilised peptide (FIG. 1A).
Assay [3] deals with Plk1 PBD (residues 326-603), purified recombinant (UniProt P53350). Kind of assay: ITC, 25 C.
Assay [4] concerns the target PBD of human Plk2 (residues 373 to 685) (human) (UniProt Q9NYY3). Kind of assay: ITC; no saturable binding. In general terms: ITC needs no label: the signal is the heat of the interaction.
Assay [5] concerns the target Flag-Plk1(K82M) (UniProt P53350). Kind of assay: pull-down from mixed HeLa lysates, anti-Flag blot (FIG. 3D).
Assay [6] concerns the target PBD of human Plk2 (residues 373 to 685) (human) (UniProt Q9NYY3). Kind of assay: ITC.

Chain of Plk1 PBD (residues 326-603), purified recombinant (P53350 326-603 limits assumed): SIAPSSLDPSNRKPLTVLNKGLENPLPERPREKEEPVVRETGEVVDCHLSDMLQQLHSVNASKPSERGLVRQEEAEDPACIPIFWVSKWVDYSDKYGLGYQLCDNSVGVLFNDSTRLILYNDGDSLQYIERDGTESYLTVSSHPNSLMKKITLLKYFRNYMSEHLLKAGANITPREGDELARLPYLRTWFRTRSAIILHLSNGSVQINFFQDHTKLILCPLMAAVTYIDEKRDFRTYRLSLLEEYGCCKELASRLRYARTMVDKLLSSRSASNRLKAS
Chain of PBD of human Plk2 (residues 373 to 685) (human) (Q9NYY3 373-685 limits assumed): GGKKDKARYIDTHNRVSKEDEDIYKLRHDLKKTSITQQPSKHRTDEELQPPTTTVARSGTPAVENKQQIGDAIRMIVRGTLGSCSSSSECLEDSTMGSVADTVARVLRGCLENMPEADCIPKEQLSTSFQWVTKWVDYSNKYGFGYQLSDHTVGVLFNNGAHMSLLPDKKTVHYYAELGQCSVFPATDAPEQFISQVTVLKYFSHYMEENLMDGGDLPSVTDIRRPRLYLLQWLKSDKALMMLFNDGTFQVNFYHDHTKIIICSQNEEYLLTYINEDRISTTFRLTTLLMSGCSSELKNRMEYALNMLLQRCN
Chain of Flag-Plk1(K82M) (P53350 whole entry K82M, the tested form may be a part): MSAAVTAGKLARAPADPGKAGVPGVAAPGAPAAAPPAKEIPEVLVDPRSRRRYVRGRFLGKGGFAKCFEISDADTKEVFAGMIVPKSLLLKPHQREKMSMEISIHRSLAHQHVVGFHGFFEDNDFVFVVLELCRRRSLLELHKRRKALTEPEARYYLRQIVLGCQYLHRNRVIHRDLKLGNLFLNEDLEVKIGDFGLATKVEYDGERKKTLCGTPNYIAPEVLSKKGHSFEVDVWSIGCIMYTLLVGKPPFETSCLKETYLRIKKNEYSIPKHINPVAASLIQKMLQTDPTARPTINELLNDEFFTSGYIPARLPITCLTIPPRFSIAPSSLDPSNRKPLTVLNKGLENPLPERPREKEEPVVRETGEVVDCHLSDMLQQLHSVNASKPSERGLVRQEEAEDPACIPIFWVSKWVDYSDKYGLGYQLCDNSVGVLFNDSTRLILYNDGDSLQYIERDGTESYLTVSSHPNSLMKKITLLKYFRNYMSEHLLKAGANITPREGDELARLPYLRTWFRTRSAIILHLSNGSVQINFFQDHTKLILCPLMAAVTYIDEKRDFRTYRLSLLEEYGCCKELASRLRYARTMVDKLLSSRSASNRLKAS
Chain of Plk1 (endogenous, in mitotic HeLa cell lysates) (P53350 2-603 limits assumed): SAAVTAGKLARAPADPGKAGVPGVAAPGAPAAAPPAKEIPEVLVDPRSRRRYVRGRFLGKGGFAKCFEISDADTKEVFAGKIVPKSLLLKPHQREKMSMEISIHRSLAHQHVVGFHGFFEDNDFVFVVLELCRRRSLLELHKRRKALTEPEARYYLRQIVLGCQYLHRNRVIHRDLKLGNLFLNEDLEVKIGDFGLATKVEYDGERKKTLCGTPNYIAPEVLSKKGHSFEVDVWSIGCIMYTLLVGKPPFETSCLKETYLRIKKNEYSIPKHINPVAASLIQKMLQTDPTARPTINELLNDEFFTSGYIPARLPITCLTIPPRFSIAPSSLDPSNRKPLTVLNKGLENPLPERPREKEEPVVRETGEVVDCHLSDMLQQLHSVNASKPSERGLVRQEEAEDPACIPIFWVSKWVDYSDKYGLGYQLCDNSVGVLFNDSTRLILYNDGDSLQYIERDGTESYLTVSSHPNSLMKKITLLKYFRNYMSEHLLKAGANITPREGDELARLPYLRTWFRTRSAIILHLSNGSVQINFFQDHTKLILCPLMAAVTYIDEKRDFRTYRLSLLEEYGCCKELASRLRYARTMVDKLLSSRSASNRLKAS

Consider LHSpT (peptide), for which the fold weaker binding than PLHSpT in assay [1] was 50 fold. Also, the fold decrease in binding against PLHSpT in assay [2] was found to be 7 fold.

The term Kd denotes a measure of binding affinity in units of concentration. For LHSpTA (peptide), the Kd in assay [3] was determined as 450 nM.

In assay [4], MQSpTPL (peptide) had an initial heats of interaction of -1.68 kcal/mol.

In the case of “PLHSpT with Leu-3 mutated to Ala (peptide)”, the fold decrease in binding against PLHSpT in assay [5] worked out at 3 fold.

Regarding PLQSpT (peptide), the initial heats of interaction in assay [6] was 1.1 kcal/mol.

PPHSpT (peptide) showed a fold decrease in binding against PLHSpT in assay [5] of 20 fold.
